In publication PMC3145919 (Neuron, 2011):
Positions count from the first letter of the chain named. In names and notes the source's numbering stands. Where two headings read alike, the source gives them in different places. Values belong to the molecule of their own block, whether it stands above or below them.

How the values were obtained:
[1] = biological target: GluR6Δ2 ATD (G215N/M217T glycan wedge mutant) (rat) (UniProt P42260); assay: AUC
[2] = biological target: GluR6Δ2 F58A mutant ATD (rat) (UniProt P42260); assay: AUC
[3] = biological target: KA2 amino terminal domain (ATD), wild type (rat) (UniProt Q63273); assay: AUC
[4] = biological target: KA2 amino terminal domain (ATD), wild type (rat) (UniProt Q63273); assay: AUC; remark: listed apart in the source
[5] = biological target: the molecule itself; assay: SEC-MALS
[6] = biological target: the molecule itself; assay: AUC
[7] = biological target: the molecule itself; assay: AUC; remark: listed apart in the source
[8] = biological target: the molecule itself; assay: AUC; remark: listed apart in the source

Kd [1]: 0.14 µM
Kd [2]: 1.63 µM
Molecule: KA2 Y57A mutant ATD (domain or fragment)

Kd [2]: 2 µM
Molecule: KA2 Y57A/E156A mutant ATD (domain or fragment)

Kd [2]: 6.7 µM
Molecule: KA2 Y57A/L163A mutant ATD (domain or fragment)

Kd [2]: 13 µM
Molecule: KA2 Y57A/S165G/T168A mutant ATD (domain or fragment)

Kd [3]: 410 µM
Kd [4]: 350 µM
Molecule: KA2 amino terminal domain (ATD), wild type (from UniProt Q63273 20-406) (domain or fragment)

B1: GluR6 amino terminal domain (ATD), wild type (domain or fragment, rat)
chain: TTHVLRFGGIFEYVESGPMGAEELAFRFAVNTINRNRTLLPNTTLTYDTQKINLYDSFEASKKACDQLSLGVAAIFGPSHSSSANAVQSICNALGVPHIQTRWKHQVSDNKDSFYVSLYPDFSSLSRAILDLVQFFKWKTVTVVYDDSTGLIRLQELIKAPSRYNLRLKIRQLPADTKDAKPLLKEMKRGKEFHVIFDCSHEMAAGILKQALAMGMMTEYYHYIFTTLDLFALDVEPYRYSGVNMTGFRILNTENTQVSSIIEKWSMERLQAPPKPDSGLLDGFMTTDAALMYDAVHVVSVAVQQFPQMTVSSLQCNRHKPWRFGTRFMSLIKEAHWEGLTGRITFNKTNGLRTDFDLDVISLKEEGLEKIGTWDPASGLNMTESQKGK
modifications: N-linked glycans
binding result [5]: binds

B2: GluR6Δ2 ATD (G215N/M217T glycan wedge mutant) (domain or fragment, rat)
chain: B1 chain with G215N, M217T
modifications: N-linked glycans, one introduced by the mutations (glycan wedge)
stoichiometry N [5]: 2
Kd [6]: 0.35 µM
Kd [7]: 0.25 µM

B3: wt GluR6/KA2 ATD heterodimer (complex, rat)
chain 1: B1 chain
chain 2: VLSSLRMAAILDDQTVCGRGERLALALAREQINGIIEVPAKARVEVDIFELQRDSQYETTDTMCQILPKGVVSVLGPSSSPASASTVSHICGEKEIPHIKVGPEETPRLQYLRFASVSLYPSNEDVSLAVSRILKSFNYPSASLICAKAECLLRLEELVRGFLISKETLSVRMLDDSRDPTPLLKEIRDDKVSTIIIDANASISHLVLRKASELGMTSAFYKYILTTMDFPILHLDGIVEDSSNILGFSMFNTSHPFYPEFVRSLNMSWRENCEASTYPGPALSAALMFDAVHVVVSAVRELNRSQEIGVKPLACTSANIWPHGTSLMNYLRMVEYDGLTGRVEFNSKGQRTNYTLRILEKSRQGHREIGVWYSNRTLAMNATTLDI
modifications: N-linked glycans | N-linked glycans
Kd [8]: 6.2 µM

B4: GluR6Δ1 ATD (A213N/G215S glycan wedge mutant) (domain or fragment, rat)
chain: B1 chain with A213N, G215S
modifications: N-linked glycans, one introduced by the mutations (glycan wedge)
stoichiometry N [5]: 2
